This is an account of results in article PMC7290032 (Nature Communications, 2020).

This assay addresses MCM8-9 complex, purified (human, UniProt Q9NXL9-1 1-1143; Q9UJA3-1 1-840). The assay is described as follows: cell-based or functional assay.

MCM8-9 complex, purified, sequence (Q9NXL9 whole entry, chain 1 of 2): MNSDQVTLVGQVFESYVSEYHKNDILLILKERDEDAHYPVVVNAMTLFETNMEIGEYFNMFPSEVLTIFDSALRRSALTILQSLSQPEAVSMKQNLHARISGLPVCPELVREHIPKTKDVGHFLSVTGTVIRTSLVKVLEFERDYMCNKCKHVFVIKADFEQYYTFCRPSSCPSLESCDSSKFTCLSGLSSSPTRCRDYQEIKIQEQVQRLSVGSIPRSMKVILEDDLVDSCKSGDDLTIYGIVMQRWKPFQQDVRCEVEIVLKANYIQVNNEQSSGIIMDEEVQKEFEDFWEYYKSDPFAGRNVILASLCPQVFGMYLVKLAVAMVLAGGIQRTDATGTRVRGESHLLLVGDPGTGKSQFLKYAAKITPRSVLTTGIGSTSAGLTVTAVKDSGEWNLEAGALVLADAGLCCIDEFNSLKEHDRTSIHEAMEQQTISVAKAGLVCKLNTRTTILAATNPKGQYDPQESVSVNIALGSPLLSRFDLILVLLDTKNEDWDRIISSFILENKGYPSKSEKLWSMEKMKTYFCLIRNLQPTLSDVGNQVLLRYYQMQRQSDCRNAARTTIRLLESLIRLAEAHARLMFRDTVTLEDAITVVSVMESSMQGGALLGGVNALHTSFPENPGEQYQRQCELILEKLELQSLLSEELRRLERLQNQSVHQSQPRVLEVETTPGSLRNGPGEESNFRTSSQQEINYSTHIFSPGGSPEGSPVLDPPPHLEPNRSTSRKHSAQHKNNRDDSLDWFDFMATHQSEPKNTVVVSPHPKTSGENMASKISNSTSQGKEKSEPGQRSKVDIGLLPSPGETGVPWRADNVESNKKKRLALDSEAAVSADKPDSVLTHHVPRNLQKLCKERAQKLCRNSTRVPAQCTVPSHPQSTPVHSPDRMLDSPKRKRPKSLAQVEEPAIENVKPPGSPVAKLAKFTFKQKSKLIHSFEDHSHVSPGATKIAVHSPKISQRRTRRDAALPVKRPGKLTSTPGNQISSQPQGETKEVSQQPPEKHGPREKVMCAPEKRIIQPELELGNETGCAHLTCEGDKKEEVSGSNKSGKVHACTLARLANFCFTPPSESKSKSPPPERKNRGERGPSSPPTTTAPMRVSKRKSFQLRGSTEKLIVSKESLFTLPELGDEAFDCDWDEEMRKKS
MCM8-9 complex, purified, sequence (Q9UJA3 whole entry, chain 2 of 2): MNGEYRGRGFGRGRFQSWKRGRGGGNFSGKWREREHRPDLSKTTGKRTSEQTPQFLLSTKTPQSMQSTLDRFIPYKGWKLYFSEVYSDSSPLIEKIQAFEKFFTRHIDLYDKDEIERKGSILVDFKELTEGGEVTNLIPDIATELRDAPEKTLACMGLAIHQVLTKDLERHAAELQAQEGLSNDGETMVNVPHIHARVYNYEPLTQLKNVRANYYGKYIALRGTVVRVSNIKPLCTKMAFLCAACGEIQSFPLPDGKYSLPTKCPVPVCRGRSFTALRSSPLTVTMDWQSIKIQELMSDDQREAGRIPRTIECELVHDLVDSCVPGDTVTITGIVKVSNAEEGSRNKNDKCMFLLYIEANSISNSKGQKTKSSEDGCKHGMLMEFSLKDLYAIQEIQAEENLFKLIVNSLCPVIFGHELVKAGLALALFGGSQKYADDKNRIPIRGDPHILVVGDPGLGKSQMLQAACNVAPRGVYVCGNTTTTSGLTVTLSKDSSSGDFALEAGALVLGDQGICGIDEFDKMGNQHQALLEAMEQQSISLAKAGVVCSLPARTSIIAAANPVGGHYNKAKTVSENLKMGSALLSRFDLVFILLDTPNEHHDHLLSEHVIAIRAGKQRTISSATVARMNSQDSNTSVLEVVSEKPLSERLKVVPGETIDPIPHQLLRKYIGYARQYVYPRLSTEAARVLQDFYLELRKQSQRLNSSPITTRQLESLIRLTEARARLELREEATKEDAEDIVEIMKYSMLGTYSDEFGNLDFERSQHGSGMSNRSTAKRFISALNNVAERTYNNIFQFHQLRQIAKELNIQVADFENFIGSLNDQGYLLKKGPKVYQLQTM

B1: MCM8IP-FLAG WT (recombinant) (natural protein, human, UniProt Q8N3J3-4 1-646, looked up)
chain: MACSLQKLFAVEEEFEDEDFLSAVEDAENRFTGSLPVNAGRLRPVSSRPQETVQAQSSRLLLLHPTAPSEALGLPDLDLCLPASSTPSADSRPSCIGAAPLRPVSTSSSWIGNQRRVTVTEVLRETARPQSSALHPLLTFESQQQQVGGFEGPEQDEFDKVLASMELEEPGMELECGVSSEAIPILPAQQREGSVLAKKARVVDLSGSCQKGPVPAIHKAGIMSAQDESLDPVIQCRTPRPPLRPGAVGHLPVPTALTVPTQQLHWEVCPQRSPVQALQPLQAARGTIQSSPQNRFPCQPFQSPSSWLSGKAHLPRPRTPNSSCSTPSRTSSGLFPRIPLQPQAPVSSIGSPVGTPKGPQGALQTPIVTNHLVQLVTAASRTPQQPTHPSTRAKTRRFPGPAGILPHQQSGRSLEDIMVSAPQTPTHGALAKFQTEIVASSQASVEEDFGRGPWLTMKSTLGLDERDPSCFLCTYSIVMVLRKAALKQLPRNKVPNMAVMIKSLTRSTMDASVVFKDPTGEMQGTVHRLLLETCQNELKPGSVLLLKQIGVFSPSLRNHYLNVTPNNLVHIYSPDSGDGSFLKPSQPFPKDSGSFQHDVAAKPEEGFRTAQNLEAEASPEEELPEADDLDGLLSELPEDFFCGTSS
For the molecule B1, the “DNA unwinding (helicase assay): 32P-labelled oligo annealed to M13mp18 ssDNA, MCM8-9 100 nM, MCM8IP 50 nM, with ATP” value was about 6 fold.
